Results reported in US10000771B2, “Nuclear targeting sequences” (Yeda Research and Development Co. Ltd., priority 2007, dated 2018).

Experiments:
Act-GST-ERK2 = target: T1, Act-GST-ERK2 (Rattus norvegicus, UniProt P63086); assay: In vitro kinase assay with active GST-ERK2; format: biochemical; conditions: immunoprecipitated protein as substrate, relative to GFP-ERK2
T1 construct: made in house; host or cells: bacteria co-expressing active MEK1
Protocol: FIGS. 4A-4I are autoradiographs characterizing SPS phosphorylation using an Ab to the phosphorylated SPS domain. FIG. 4A illustrates an elevation of pSPS detection upon stimulation. COS cells were transfected with WT-GFP-ERK2. Twenty-four hr after transfection, the cells were serum-starved for 16 hr and subsequently treated with the general stimulator VOOH (V, 100 μM Na3VO4 and 200 μM H2O2, 15 min), TPA (T, 250 nM, 15 min), EGF (E, 50 ng/ml for 15 min), or left untreated (NT). The GFP-ERK2 was immunoprecipitated with anti GFP Ab, extensively washed, and the IP was then subjected to Western blotting with anti phospho SPS-ERK (αphoSPS-ERK) and anti general ERK (αgen-ERK) Abs. FIG. 4B is a time course of SPS phosphorylation. […] SPS phosphorylation was detected using the anti pSPS Abs, and this was compared to the amount of genral ERKs detected by αgERK. […] SPS-phosphorylation was detected using αpSPS and αgERK Abs. […] The phosphorylation (^32P-ERK2) of ERK and its mutants was detected by autoradiography. […]
Some protein kinases downstream of MEKs that may be involved in the SPS phosphorylation are ERKs themselves (autophosphorylation) as their consensus phosphorylation site includes Ser/Thr followed by a Pro (Yoon and Seger, 2006, Growth Factors, 24, 21-44). […] As expected, ^32P incorporation to GFP-ERK2 was detected mainly when this protein was incubated with Act-ERK2. […]

importin-7 = target: T2, importin-7 (Homo sapiens, UniProt O95373); assay: Coimmunoprecipitation with importin-7; format: binding; conditions: HeLa cells, coimmunoprecipitation with anti GFP Ab, with or without stimulation
T2 construct: endogenous in cells; host or cells: HeLa
Protocol: (§1) FIGS. 19A-19C are autoradiographs illustrating that phospho-SPS interacts with importin-7 and releases Nup153c binding without involvment of importin-β. […]. Interaction of ERK2 with Importin-7 is enhanced by EGF stimulation and EPE mutation. HeLa cells overexpressing WT-ERK (WT), ERK-APA (APA), ERK-EPE (EPE) or GFP were serum starved and treated with EGF (50 ng/ml, 10 min). The extracts of the treated cells were then subjected to coimmunoprecipitation using A/G beads pre-conjugated with anti GFP Ab and mild washes. The coimmunoprecipitated importin-7 (first panel) and importin-β (third panel), as well as their loading amounts (panels 2 and 4 respectively) were determined by WB using anti importin-7 (αImp7) and importin-β (αImpβ) Abs. The equal amount of immunoprecipitated ERKs was determined with anti GFP (αGFP; IP) Ab. FIG. 19B. Interaction of 2GFP-SPS and its mutants with importin-7. HeLa cells overexpressing 2GFP, 2GFP-SPS, 2GFP-APA and 2GFP-EPE constructs were subjected to coimmunoprecipitation as described in FIG. 19A (without EGF stimulation). FIG. 19C. Interaction of NUP153 with WTERK2 and its APA and EPE mutants. NUP153c is elevated in APA-ERK2, but reduced in EPE-ERK2. Immunoprecipitated and stringently washed WT-ERK2 (WT), APA-ERK2 (APA) or ERK2 from […] cells pre-treated with or without TPA (250 nM, 15 min) were incubated with 0.5 μg recombinant His-Nup153c. […]

Nup153c = assay: Interaction with recombinant His-Nup153c; format: binding; conditions: immunoprecipitated ERK2 incubated with 0.5 μg recombinant His-Nup153c
Protocol: as §1

T2 sequence (O95373 whole entry): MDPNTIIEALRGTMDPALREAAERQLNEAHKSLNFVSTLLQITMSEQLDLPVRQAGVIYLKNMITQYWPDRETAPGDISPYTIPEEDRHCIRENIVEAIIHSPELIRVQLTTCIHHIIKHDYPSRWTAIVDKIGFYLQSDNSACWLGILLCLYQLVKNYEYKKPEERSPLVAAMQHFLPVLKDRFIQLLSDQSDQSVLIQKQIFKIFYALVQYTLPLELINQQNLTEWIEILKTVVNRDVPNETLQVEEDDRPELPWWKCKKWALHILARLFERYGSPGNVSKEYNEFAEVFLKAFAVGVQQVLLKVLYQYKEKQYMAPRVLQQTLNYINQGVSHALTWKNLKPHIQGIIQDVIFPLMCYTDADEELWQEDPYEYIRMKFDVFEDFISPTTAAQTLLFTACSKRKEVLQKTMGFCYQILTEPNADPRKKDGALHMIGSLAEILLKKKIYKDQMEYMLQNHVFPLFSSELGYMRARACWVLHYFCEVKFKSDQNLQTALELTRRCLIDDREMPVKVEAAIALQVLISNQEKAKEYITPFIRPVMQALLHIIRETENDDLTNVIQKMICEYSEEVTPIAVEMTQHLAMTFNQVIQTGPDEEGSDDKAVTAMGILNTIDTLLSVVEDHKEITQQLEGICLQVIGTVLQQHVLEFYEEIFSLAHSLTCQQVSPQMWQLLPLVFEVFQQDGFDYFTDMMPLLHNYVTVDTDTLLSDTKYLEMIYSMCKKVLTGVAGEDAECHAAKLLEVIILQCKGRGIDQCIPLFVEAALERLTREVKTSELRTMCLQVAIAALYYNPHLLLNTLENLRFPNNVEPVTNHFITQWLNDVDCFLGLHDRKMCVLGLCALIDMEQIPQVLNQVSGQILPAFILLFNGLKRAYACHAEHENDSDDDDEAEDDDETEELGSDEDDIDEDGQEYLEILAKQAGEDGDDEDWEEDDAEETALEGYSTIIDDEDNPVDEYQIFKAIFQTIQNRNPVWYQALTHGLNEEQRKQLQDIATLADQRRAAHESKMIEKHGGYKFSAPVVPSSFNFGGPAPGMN
T1 sequence (P63086 whole entry): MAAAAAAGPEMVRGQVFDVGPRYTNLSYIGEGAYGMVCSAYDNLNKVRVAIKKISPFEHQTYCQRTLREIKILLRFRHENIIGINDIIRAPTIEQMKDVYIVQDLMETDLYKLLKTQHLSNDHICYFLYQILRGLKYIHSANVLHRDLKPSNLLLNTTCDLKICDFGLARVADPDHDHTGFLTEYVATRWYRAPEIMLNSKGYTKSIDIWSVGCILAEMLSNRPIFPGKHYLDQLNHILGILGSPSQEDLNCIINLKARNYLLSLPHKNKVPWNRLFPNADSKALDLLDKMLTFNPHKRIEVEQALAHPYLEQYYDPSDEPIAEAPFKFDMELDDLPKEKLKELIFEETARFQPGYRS

reduction of phosphorylation (32P incorporation) by Act-ERK2 (Act-GST-ERK2): ~80% | interaction of ERK2 constructs with importin-7 (importin-7): reduced the interaction
B1: APA-ERK2: GFP-ERK2 with the two Ser residues of the SPS sequence replaced by Ala (protein)
chain: MAAAAAAGPEMVRGQVFDVGPRYTNLSYIGEGAYGMVCSAYDNLNKVRVAIKKISPFEHQTYCQRTLREIKILLRFRHENIIGINDIIRAPTIEQMKDVYIVQDLMETDLYKLLKTQHLSNDHICYFLYQILRGLKYIHSANVLHRDLKPSNLLLNTTCDLKICDFGLARVADPDHDHTGFLTEYVATRWYRAPEIMLNSKGYTKSIDIWSVGCILAEMLSNRPIFPGKHYLDQLNHILGILGAPAQEDLNCIINLKARNYLLSLPHKNKVPWNRLFPNADSKALDLLDKMLTFNPHKRIEVEQALAHPYLEQYYDPSDEPIAEAPFKFDMELDDLPKEKLKELIFEETARFQPGYRS
modifications: left off: large carriers
interaction with Nup153 (Nup153c): increased
